Values belong to the binder of their own block, whether it stands above or below them.
Experiments:
CD8 on CD8+ T cells = target: T1, CD8 on CD8+ T cells (UniProt P01732 22-235); assay: FACS
T1 construct: whole, on cells

[1] = target: human IL-12 receptor complex (IL-12Rβ1, IL-12Rβ2) (human, UniProt P42701 24-662; Q99665 24-862); assay: cell-based or functional assay
human IL-12 receptor complex (IL-12Rβ1, IL-12Rβ2), sequence (Q99665 24-862, chain 2 of 2, other chains not shown): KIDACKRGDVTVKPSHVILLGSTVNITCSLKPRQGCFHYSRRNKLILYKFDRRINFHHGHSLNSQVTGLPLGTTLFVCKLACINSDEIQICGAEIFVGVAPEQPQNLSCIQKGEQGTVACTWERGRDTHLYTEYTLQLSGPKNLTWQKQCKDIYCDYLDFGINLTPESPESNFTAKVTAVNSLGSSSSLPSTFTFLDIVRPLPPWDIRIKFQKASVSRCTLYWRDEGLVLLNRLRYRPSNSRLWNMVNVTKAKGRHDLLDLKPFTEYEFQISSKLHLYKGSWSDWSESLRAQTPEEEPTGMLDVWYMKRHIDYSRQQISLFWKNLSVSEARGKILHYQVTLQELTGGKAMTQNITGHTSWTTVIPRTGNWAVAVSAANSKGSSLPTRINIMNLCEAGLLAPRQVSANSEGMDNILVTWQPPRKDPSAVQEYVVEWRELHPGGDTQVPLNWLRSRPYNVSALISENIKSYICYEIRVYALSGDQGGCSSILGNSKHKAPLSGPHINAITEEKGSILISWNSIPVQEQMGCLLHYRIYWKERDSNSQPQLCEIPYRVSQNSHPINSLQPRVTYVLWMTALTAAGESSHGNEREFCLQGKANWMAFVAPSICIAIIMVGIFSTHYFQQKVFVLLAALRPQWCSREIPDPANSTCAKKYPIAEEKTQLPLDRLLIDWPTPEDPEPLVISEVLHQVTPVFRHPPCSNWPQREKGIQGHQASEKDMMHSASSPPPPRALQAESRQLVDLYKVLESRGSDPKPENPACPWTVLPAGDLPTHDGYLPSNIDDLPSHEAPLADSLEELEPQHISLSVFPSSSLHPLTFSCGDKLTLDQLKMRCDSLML

T1 sequence (P01732 22-235): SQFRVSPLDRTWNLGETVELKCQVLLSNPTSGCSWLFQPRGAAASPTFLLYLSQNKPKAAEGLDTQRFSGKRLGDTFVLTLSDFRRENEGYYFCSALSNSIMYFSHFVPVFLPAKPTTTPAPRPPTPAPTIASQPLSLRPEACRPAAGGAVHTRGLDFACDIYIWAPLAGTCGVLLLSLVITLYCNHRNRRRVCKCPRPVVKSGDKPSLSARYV

binding result (CD8 on CD8+ T cells): no binding
IL-12 biological activity (IFN-γ release), CD4+ T cells [1]: 29.8%
IL-12 biological activity (IFN-γ release), CD8+ T cells [1]: 1.1%
B2: Fab-IL-12(E59A)-Fc-CD4 Ab (other)
light: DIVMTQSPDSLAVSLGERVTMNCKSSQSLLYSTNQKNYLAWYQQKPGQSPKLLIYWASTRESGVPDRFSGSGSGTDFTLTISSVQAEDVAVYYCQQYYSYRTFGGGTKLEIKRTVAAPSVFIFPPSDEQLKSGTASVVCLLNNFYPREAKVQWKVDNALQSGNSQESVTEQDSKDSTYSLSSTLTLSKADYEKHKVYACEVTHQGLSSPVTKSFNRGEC
heavy 1: QVQLQQSGPEVVKPGASVKMSCKASGYTFTSYVIHWVRQKPGQGLDWIGYINPYNDGTDYDEKFKGKATLTSDTSTSTAYMELSSLRSEDTAVYYCAREKDNYATGAWFAYWGQGTLVTVSSASTKGPSVFPLAPSSKSTSGGTAALGCLVKDYFPEPVTVSWNSGALTSGVHTFPAVLQSSGLYSLSSVVTVPSSSLGTQTYICNVNHKPSNTKVDKKVEPKSCDKTHTCPPCPAPEKKGGPSVFLFPPKPKDTLMISRTPEVTCVVVDVSHEDPEVKFNWYVDGVEVHNAKTKPREEQYNSTYRVVSVLTVLHQDWLNGKEYKCKVSNKALPAPIEKTISKAKGQPREPQVYVLPPSREEMTKNQVSLLCLVKGFYPSDIAVEWESNGQPENRYMTWPPVLDSDGSFFLYSKLTVDKSRWQQGNVFSCSVMHEALHNHYTQKSLSLSPGK
heavy 2: QVQLQQSGPEVVKPGASVKMSCKASGYTFTSYVIHWVRQKPGQGLDWIGYINPYNDGTDYDEKFKGKATLTSDTSTSTAYMELSSLRSEDTAVYYCAREKDNYATGAWFAYWGQGTLVTVSSASTKGPSVFPLAPSSKSTSGGTAALGCLVKDYFPEPVTVSWNSGALTSGVHTFPAVLQSSGLYSLSSVVTVPSSSLGTQTYICNVNHKPSNTKVDKKVEPKSCDKPGSGIWELKKDVYVVELDWYPDAPGEMVVLTCDTPEEDGITWTLDQSSEVLGSGKTLTIQVKAFGDAGQYTCHKGGEVLSHSLLLLHKKEDGIWSTDILKDQKEPKNKTFLRCEAKNYSGRFTCWWLTTISTDLTFSVKSSRGSSDPQGVTCGAATLSAERVRGDNKEYEYSVECQEDSACPAAEESLPIEVMVDAVHKLKYENYTSSFFIRDIIKPDPPKNLQLKPLKNSRQVEVSWEYPDTWSTPHSYFSLTFCVQVQGKSKREKKDRVFTDKTSATVICRKNASISVRAQDRYYSSSWSEWASVPCSGGGGSGGGGSGGGGSGGGGSGRNLPVATPDPGMFPCLHHSQNLLRAVSNMLQKARQTLEFYPCTSEEIDHEDITKDKTSTVEACLPLELTKNESCLNSRETSFITNGSCLASRKTSFMMALCLSSIYEDLKMYQVEFKTMNAKLLMDPKRQIFLDQNMLAVIDELMQALNFNSETVPQKSSLEEPDFYKTKIKLCILLHAFRIRAVTIDRVMSYLNASDKTHTCPPCPAPEDEGGPSVFLFPPKPKDTLMISRTPEVTCVVVDVSHEDPEVKFNWYVDGVEVHNAKTKPREEQYNSTYRVVSVLTVLHQDWLNGKEYKCKVSNKALPAPIEKTISKAKGQPREPQVYVYPPSREEMTKNQVSLTCLVKGFYPSDIAVEWESNGQPENNYKTTPPVLDEDGSFALVSKLTVDKSRWQQGNVFSCSVMHEALHNHYTQKSLSLSPGK
notes: copies: 2 + 1 + 1

binding result (CD8 on CD8+ T cells): no binding
IL-12 biological activity (IFN-γ release), CD4+ T cells [1]: 8.2%
IL-12 biological activity (IFN-γ release), CD8+ T cells [1]: 0%
B3: Fab-IL-12(E59A/F60A)-Fc-CD4 Ab (other)
light: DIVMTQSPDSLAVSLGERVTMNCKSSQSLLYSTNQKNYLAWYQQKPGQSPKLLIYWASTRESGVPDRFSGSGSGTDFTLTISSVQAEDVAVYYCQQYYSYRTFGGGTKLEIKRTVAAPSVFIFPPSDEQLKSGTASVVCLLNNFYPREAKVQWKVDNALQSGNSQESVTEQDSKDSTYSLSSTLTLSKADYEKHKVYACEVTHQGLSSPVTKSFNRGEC
heavy 1: QVQLQQSGPEVVKPGASVKMSCKASGYTFTSYVIHWVRQKPGQGLDWIGYINPYNDGTDYDEKFKGKATLTSDTSTSTAYMELSSLRSEDTAVYYCAREKDNYATGAWFAYWGQGTLVTVSSASTKGPSVFPLAPSSKSTSGGTAALGCLVKDYFPEPVTVSWNSGALTSGVHTFPAVLQSSGLYSLSSVVTVPSSSLGTQTYICNVNHKPSNTKVDKKVEPKSCDKTHTCPPCPAPEKKGGPSVFLFPPKPKDTLMISRTPEVTCVVVDVSHEDPEVKFNWYVDGVEVHNAKTKPREEQYNSTYRVVSVLTVLHQDWLNGKEYKCKVSNKALPAPIEKTISKAKGQPREPQVYVLPPSREEMTKNQVSLLCLVKGFYPSDIAVEWESNGQPENRYMTWPPVLDSDGSFFLYSKLTVDKSRWQQGNVFSCSVMHEALHNHYTQKSLSLSPGK
heavy 2: QVQLQQSGPEVVKPGASVKMSCKASGYTFTSYVIHWVRQKPGQGLDWIGYINPYNDGTDYDEKFKGKATLTSDTSTSTAYMELSSLRSEDTAVYYCAREKDNYATGAWFAYWGQGTLVTVSSASTKGPSVFPLAPSSKSTSGGTAALGCLVKDYFPEPVTVSWNSGALTSGVHTFPAVLQSSGLYSLSSVVTVPSSSLGTQTYICNVNHKPSNTKVDKKVEPKSCDKPGSGIWELKKDVYVVELDWYPDAPGEMVVLTCDTPEEDGITWTLDQSSEVLGSGKTLTIQVKAAGDAGQYTCHKGGEVLSHSLLLLHKKEDGIWSTDILKDQKEPKNKTFLRCEAKNYSGRFTCWWLTTISTDLTFSVKSSRGSSDPQGVTCGAATLSAERVRGDNKEYEYSVECQEDSACPAAEESLPIEVMVDAVHKLKYENYTSSFFIRDIIKPDPPKNLQLKPLKNSRQVEVSWEYPDTWSTPHSYFSLTFCVQVQGKSKREKKDRVFTDKTSATVICRKNASISVRAQDRYYSSSWSEWASVPCSGGGGSGGGGSGGGGSGGGGSGRNLPVATPDPGMFPCLHHSQNLLRAVSNMLQKARQTLEFYPCTSEEIDHEDITKDKTSTVEACLPLELTKNESCLNSRETSFITNGSCLASRKTSFMMALCLSSIYEDLKMYQVEFKTMNAKLLMDPKRQIFLDQNMLAVIDELMQALNFNSETVPQKSSLEEPDFYKTKIKLCILLHAFRIRAVTIDRVMSYLNASDKTHTCPPCPAPEDEGGPSVFLFPPKPKDTLMISRTPEVTCVVVDVSHEDPEVKFNWYVDGVEVHNAKTKPREEQYNSTYRVVSVLTVLHQDWLNGKEYKCKVSNKALPAPIEKTISKAKGQPREPQVYVYPPSREEMTKNQVSLTCLVKGFYPSDIAVEWESNGQPENNYKTTPPVLDEDGSFALVSKLTVDKSRWQQGNVFSCSVMHEALHNHYTQKSLSLSPGK

More lines, now with the values behind:

B1: Fab-IL-12(WT)-Fc-CD4 Ab (other)
light: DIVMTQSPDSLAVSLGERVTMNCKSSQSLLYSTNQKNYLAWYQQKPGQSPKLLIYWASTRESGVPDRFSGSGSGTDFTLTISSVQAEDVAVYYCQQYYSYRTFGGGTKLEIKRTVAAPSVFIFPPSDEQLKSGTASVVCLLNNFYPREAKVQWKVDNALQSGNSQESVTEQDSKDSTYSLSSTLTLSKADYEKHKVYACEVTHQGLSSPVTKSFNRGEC
heavy 1: QVQLQQSGPEVVKPGASVKMSCKASGYTFTSYVIHWVRQKPGQGLDWIGYINPYNDGTDYDEKFKGKATLTSDTSTSTAYMELSSLRSEDTAVYYCAREKDNYATGAWFAYWGQGTLVTVSSASTKGPSVFPLAPSSKSTSGGTAALGCLVKDYFPEPVTVSWNSGALTSGVHTFPAVLQSSGLYSLSSVVTVPSSSLGTQTYICNVNHKPSNTKVDKKVEPKSCDKTHTCPPCPAPEKKGGPSVFLFPPKPKDTLMISRTPEVTCVVVDVSHEDPEVKFNWYVDGVEVHNAKTKPREEQYNSTYRVVSVLTVLHQDWLNGKEYKCKVSNKALPAPIEKTISKAKGQPREPQVYVLPPSREEMTKNQVSLLCLVKGFYPSDIAVEWESNGQPENRYMTWPPVLDSDGSFFLYSKLTVDKSRWQQGNVFSCSVMHEALHNHYTQKSLSLSPGK
heavy 2: QVQLQQSGPEVVKPGASVKMSCKASGYTFTSYVIHWVRQKPGQGLDWIGYINPYNDGTDYDEKFKGKATLTSDTSTSTAYMELSSLRSEDTAVYYCAREKDNYATGAWFAYWGQGTLVTVSSASTKGPSVFPLAPSSKSTSGGTAALGCLVKDYFPEPVTVSWNSGALTSGVHTFPAVLQSSGLYSLSSVVTVPSSSLGTQTYICNVNHKPSNTKVDKKVEPKSCDKPGSGIWELKKDVYVVELDWYPDAPGEMVVLTCDTPEEDGITWTLDQSSEVLGSGKTLTIQVKEFGDAGQYTCHKGGEVLSHSLLLLHKKEDGIWSTDILKDQKEPKNKTFLRCEAKNYSGRFTCWWLTTISTDLTFSVKSSRGSSDPQGVTCGAATLSAERVRGDNKEYEYSVECQEDSACPAAEESLPIEVMVDAVHKLKYENYTSSFFIRDIIKPDPPKNLQLKPLKNSRQVEVSWEYPDTWSTPHSYFSLTFCVQVQGKSKREKKDRVFTDKTSATVICRKNASISVRAQDRYYSSSWSEWASVPCSGGGGSGGGGSGGGGSGGGGSGRNLPVATPDPGMFPCLHHSQNLLRAVSNMLQKARQTLEFYPCTSEEIDHEDITKDKTSTVEACLPLELTKNESCLNSRETSFITNGSCLASRKTSFMMALCLSSIYEDLKMYQVEFKTMNAKLLMDPKRQIFLDQNMLAVIDELMQALNFNSETVPQKSSLEEPDFYKTKIKLCILLHAFRIRAVTIDRVMSYLNASDKTHTCPPCPAPEDEGGPSVFLFPPKPKDTLMISRTPEVTCVVVDVSHEDPEVKFNWYVDGVEVHNAKTKPREEQYNSTYRVVSVLTVLHQDWLNGKEYKCKVSNKALPAPIEKTISKAKGQPREPQVYVYPPSREEMTKNQVSLTCLVKGFYPSDIAVEWESNGQPENNYKTTPPVLDEDGSFALVSKLTVDKSRWQQGNVFSCSVMHEALHNHYTQKSLSLSPGK
notes: copies: 2 + 1 + 1
binding result (CD8 on CD8+ T cells): no binding
IL-12 biological activity (IFN-γ release), CD4+ T cells [1]: 43%
IL-12 biological activity (IFN-γ release), CD8+ T cells [1]: 25%

B4: Fab-IL-12(F60A)-Fc-CD4 Ab (other)
light: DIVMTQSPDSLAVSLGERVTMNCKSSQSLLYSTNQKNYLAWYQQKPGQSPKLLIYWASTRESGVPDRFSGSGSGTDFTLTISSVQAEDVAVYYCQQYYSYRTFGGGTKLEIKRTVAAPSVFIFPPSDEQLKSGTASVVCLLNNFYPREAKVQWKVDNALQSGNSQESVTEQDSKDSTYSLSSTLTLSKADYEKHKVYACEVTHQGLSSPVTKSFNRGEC
heavy 1: QVQLQQSGPEVVKPGASVKMSCKASGYTFTSYVIHWVRQKPGQGLDWIGYINPYNDGTDYDEKFKGKATLTSDTSTSTAYMELSSLRSEDTAVYYCAREKDNYATGAWFAYWGQGTLVTVSSASTKGPSVFPLAPSSKSTSGGTAALGCLVKDYFPEPVTVSWNSGALTSGVHTFPAVLQSSGLYSLSSVVTVPSSSLGTQTYICNVNHKPSNTKVDKKVEPKSCDKTHTCPPCPAPEKKGGPSVFLFPPKPKDTLMISRTPEVTCVVVDVSHEDPEVKFNWYVDGVEVHNAKTKPREEQYNSTYRVVSVLTVLHQDWLNGKEYKCKVSNKALPAPIEKTISKAKGQPREPQVYVLPPSREEMTKNQVSLLCLVKGFYPSDIAVEWESNGQPENRYMTWPPVLDSDGSFFLYSKLTVDKSRWQQGNVFSCSVMHEALHNHYTQKSLSLSPGK
heavy 2: QVQLQQSGPEVVKPGASVKMSCKASGYTFTSYVIHWVRQKPGQGLDWIGYINPYNDGTDYDEKFKGKATLTSDTSTSTAYMELSSLRSEDTAVYYCAREKDNYATGAWFAYWGQGTLVTVSSASTKGPSVFPLAPSSKSTSGGTAALGCLVKDYFPEPVTVSWNSGALTSGVHTFPAVLQSSGLYSLSSVVTVPSSSLGTQTYICNVNHKPSNTKVDKKVEPKSCDKPGSGIWELKKDVYVVELDWYPDAPGEMVVLTCDTPEEDGITWTLDQSSEVLGSGKTLTIQVKEAGDAGQYTCHKGGEVLSHSLLLLHKKEDGIWSTDILKDQKEPKNKTFLRCEAKNYSGRFTCWWLTTISTDLTFSVKSSRGSSDPQGVTCGAATLSAERVRGDNKEYEYSVECQEDSACPAAEESLPIEVMVDAVHKLKYENYTSSFFIRDIIKPDPPKNLQLKPLKNSRQVEVSWEYPDTWSTPHSYFSLTFCVQVQGKSKREKKDRVFTDKTSATVICRKNASISVRAQDRYYSSSWSEWASVPCSGGGGSGGGGSGGGGSGGGGSGRNLPVATPDPGMFPCLHHSQNLLRAVSNMLQKARQTLEFYPCTSEEIDHEDITKDKTSTVEACLPLELTKNESCLNSRETSFITNGSCLASRKTSFMMALCLSSIYEDLKMYQVEFKTMNAKLLMDPKRQIFLDQNMLAVIDELMQALNFNSETVPQKSSLEEPDFYKTKIKLCILLHAFRIRAVTIDRVMSYLNASDKTHTCPPCPAPEDEGGPSVFLFPPKPKDTLMISRTPEVTCVVVDVSHEDPEVKFNWYVDGVEVHNAKTKPREEQYNSTYRVVSVLTVLHQDWLNGKEYKCKVSNKALPAPIEKTISKAKGQPREPQVYVYPPSREEMTKNQVSLTCLVKGFYPSDIAVEWESNGQPENNYKTTPPVLDEDGSFALVSKLTVDKSRWQQGNVFSCSVMHEALHNHYTQKSLSLSPGK
notes: copies: 2 + 1 + 1
binding result (CD8 on CD8+ T cells): no binding
IL-12 biological activity (IFN-γ release), CD4+ T cells [1]: 32.2%
IL-12 biological activity (IFN-γ release), CD8+ T cells [1]: 1.5%

Reference: patent US20240190962A1 (IMMUNOWAKE, published 2024)
